Measured values from paper PMC6333409, “Crystal structure of chloramphenicol-metabolizing enzyme EstDL136 from a metagenome” (PLoS ONE, 2019).

Test system: CC(=O)Oc1ccc([N+](=O)[O-])cc1
Assay: purified protein
Type: biochemical, uncultured bacterium pDL136
Settings: 50 mM Tris pH 8.0, 30°C, ~2 nM enzyme, value in parentheses is standard error

EstDL136 (wild-type full-length) (uncultured bacterium pDL136)
Km: 0.14 (0.016) mM | kcat: 622 s⁻¹ | kcat/Km: 4.4e+06 M⁻¹ s⁻¹

EstDL136 (wild-type full-length) (uncultured bacterium pDL136; F214A)
Km: 0.55 (0.051) mM | kcat: 641 s⁻¹ | kcat/Km: 1.2e+06 M⁻¹ s⁻¹

EstDL136 (wild-type full-length) (uncultured bacterium pDL136; L206A)
Km: 0.40 (0.030) mM | kcat: 547 s⁻¹ | kcat/Km: 1.4e+06 M⁻¹ s⁻¹
